From the supplement of paper PMC5998384

Key:
HeLa Kyoto [1] = assay: solubility in G1/S (NP-40 vs SDS abundance) (log2 ratio); higher = more soluble; conditions: cell cycle stage: G1/S
HeLa Kyoto [2] = assay: melting temperature (median over replicates), in situ; higher = more thermally stable
HeLa Kyoto [3] = assay: solubility change mitosis vs G1/S (difference of NP-40 vs SDS log2 ratios) (log2 ratio difference); higher = more soluble in mitosis
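Wherever melting temperature (median over replicates), in situ is given: HeLa Kyoto cells synchronized by double thymidine or nocodazole block, proteins quantified by TMT10plex mass spectrometry, three independent biological replicates.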
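Wherever solubility change mitosis vs G1/S (difference of NP-40 vs SDS log2 ratios) is given: synchronized HeLa Kyoto cells (double thymidine block for G1/S, nocodazole release for mitosis), protein amounts in NP-40 versus SDS lysates quantified by mass spectrometry, three biological replicates.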
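Wherever solubility in G1/S (NP-40 vs SDS abundance) is given: HeLa Kyoto cells arrested at G1/S by double thymidine block, proteins quantified by TMT10plex mass spectrometry in mild NP-40 versus SDS extracts, three biological replicates.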

Sequence	solubility in G1/S (log2) (HeLa Kyoto [1])	melting temperature (HeLa Kyoto [2]; cell cycle stage: G1/S) [°C]	melting temperature (HeLa Kyoto [2]; cell cycle stage: mitosis) [°C]	solubility change mitosis (log2) (HeLa Kyoto [3])
MGEFKVHRVRFFNYVPSGIRCVAYNNQSNRLAVSRTDGTVEIYNLSANYFQEKFFPGHESRATEALCWAEGQRLFSAGLNGEIMEYDLQALNIKYAMDAFGGPIWSMAASPSGSQLLVGCEDGSVKLFQITPDKIQFERNFDRQKSRILSLSWHPSGTHIAAGSIDYISVFDVKSGSAVHKMIVDRQYMGVSKRKCIVWGVAFLSDGTIISVDSAGKVQFWDSATGTLVKSHLIANADVQSIAVADQEDSFVVGTAEGTVFHFQLVPVTSNSSEKQWVRTKPFQHHTHDVRTVAHSPTALISGGTDTHLVFRPLMEKVEVKNYDAALRKITFPHRCLISCSKKRQLLLFQFAHHLELWRLGSTVATGKNGDTLPLSKNADHLLHLKTKGPENIICSCISPCGSWIAYSTVSRFFLYRLNYEHDNISLKRVSKMPAFLRSALQILFSEDSTKLFVASNQGALHIVQLSGGSFKHLHAFQPQSGTVEAMCLLAVSPDGNWLAASGTSAGVHVYNVKQLKLHCTVPAYNFPVTAMAIAPNTNNLVIAHSDQQVFEYSIPDKQYTDWSRTVQKQGFHHLWLQRDTPITHISFHPKRPMHILLHDAYMFCIIDKSLPLPNDKTLLYNPFPPTNESDVIRRRTAHAFKISKIYKPLLFMDLLDERTLVAVERPLDDIIAQLPPPIKKKKFGT [CIRH1A]	-1.13	54.3	52.3	0.349
MGLCKCPKRKVTNLFCFEHRVNVCEHCLVANHAKCIVQSYLQWLQDSDYNPNCRLCNIPLASRETTRLVCYDLFHWACLNERAAQLPRNTAPAGYQCPSCNGPIFPPTNLAGPVASALREKLATVNWARAGLGLPLIDEVVSPEPEPLNTSDFSDWSSFNASSTPGPEEVDSASAAPAFYSQAPRPPASPGRPEQHTVIHMGNPEPLTHAPRKVYDTRDDDRTPGLHGDCDDDKYRRRPALGWLARLLRSRAGSRKRPLTLLQRAGLLLLLGLLGFLALLALMSRLGRAAADSDPNLDPLMNPHIRVGPS [ZFPL1]	0.256	57.4		-0.0676
MGLFGKTQEKPPKELVNEWSLKIRKEMRVVDRQIRDIQREEEKVKRSVKDAAKKGQKDVCIVLAKEMIRSRKAVSKLYASKAHMNSVLMGMKNQLAVLRVAGSLQKSTEVMKAMQSLVKIPEIQATMRELSKEMMKAGIIEEMLEDTFESMDDQEEMEEEAEMEIDRILFEITAGALGKAPSKVTDALPEPEPPGAMAASEDEEEEEEALEAMQSRLATLRS [CHMP3]	0.866	51.4	51	-0.0644
MGPPRHPQAGEIEAGGAGGGRRLQVEMSSQQFPRLGAPSTGLSQAPSQIANSGSAGLINPAATVNDESGRDSEVSAREHMSSSSSLQSREEKQEPVVVRPYPQVQMLSTHHAVASATPVAVTAPPAHLTPAVPLSFSEGLMKPPPKPTMPSRPIAPAPPSTLSLPPKVPGQVTVTMESSIPQASAIPVATISGQQGHPSNLHHIMTTNVQMSIIRSNAPGPPLHIGASHLPRGAAAAAVMSSSKVTTVLRPTSQLPNAATAQPAVQHIIHQPIQSRPPVTTSNAIPPAVVATVSATRAQSPVITTTAAHATDSALSRPTLSIQHPPSAAISIQRPAQSRDVTTRITLPSHPALGTPKQQLHTMAQKTIFSTGTPVAAATVAPILATNTIPSATTAGSVSHTQAPTSTIVTMTVPSHSSHATAVTTSNIPVAKVVPQQITHTSPRIQPDYPAERSSLIPISGHRASPNPVAMETRSDNRPSVPVQFQYFLPTYPPSAYPLAAHTYTPITSSVSTIRQYPVSAQAPNSAITAQTGVGVASTVHLNPMQLMTVDASHARHIQGIQPAPISTQGIQPAPIGTPGIQPAPLGTQGIHSATPINTQGLQPAPMGTQQPQPEGKTSAVVLADGATIVANPISNPFSAAPAATTVVQTHSQSASTNAPAQGSSPRPSILRKKPATDGAKPKSEIHVSMATPVTVSMETVSNQNNDQPTIAVPPTAQQPPPTIPTMIAAASPPSQPAVALSTIPGAVPITPPITTIAAAPPPSVTVGGSLSSVLGPPVPEIKVKEEVEPMDIMRPVSAVPPLATNTVSPSLALLANNLSMPTSDLPPGASPRKKPRKQQHVISTEEGDMMETNSTDDEKSTAKSLLVKAEKRKSPPKEYIDEEGVRYVPVRPRPPITLLRHYRNPWKAAYHHFQRYSDVRVKEEKKAMLQEIANQKGVSCRAQGWKVHLCAAQLLQLTNLEHDVYERLTNLQEGIIPKKKAATDDDLHRINELIQGNMQRCKLVMDQISEARDSMLKVLDHKDRVLKLLNKNGTVKKVSKLKRKEKV [SAP130]	0.147	50.5	50	-0.0185
MGSTESSEGRRVSFGVDEEERVRVLQGVRLSENVVNRMKEPSSPPPAPTSSTFGLQDGNLRAPHKESTLPRSGSSGGQQPSGMKEGVKRYEQEHAAIQDKLFQVAKREREAATKHSKASLPTGEGSISHEEQKSVRLARELESREAELRRRDTFYKEQLERIERKNAEMYKLSSEQFHEAASKMESTIKPRRVEPVCSGLQAQILHCYRDRPHEVLLCSDLVKAYQRCVSAAHKG [CHCHD6]	0.215	54.7	53.2	0.232
MHRAPSPTAEQPPGGGDSARRTLQPRLKPSARAMALPRTLGELQLYRVLQRANLLSYYETFIQQGGDDVQQLCEAGEEEFLEIMALVGMATKPLHVRRLQKALREWATNPGLFSQPVPAVPVSSIPLFKISETAGTRKGSMSNGHGSPGEKAGSARSFSPKSPLELGEKLSPLPGGPGAGDPRIWPGRSTPESDVGAGGEEEAGSPPFSPPAGGGVPEGTGAGGLAAGGTGGGPDRLEPEMVRMVVESVERIFRSFPRGDAGEVTSLLKLNKKLARSVGHIFEMDDNDSQKEEEIRKYSIIYGRFDSKRREGKQLSLHELTINEAAAQFCMRDNTLLLRRVELFSLSRQVARESTYLSSLKGSRLHPEELGGPPLKKLKQEVGEQSHPEIQQPPPGPESYVPPYRPSLEEDSASLSGESLDGHLQAVGSCPRLTPPPADLPLALPAHGLWSRHILQQTLMDEGLRLARLVSHDRVGRLSPCVPAKPPLAEFEEGLLDRCPAPGPHPALVEGRRSSVKVEAEASRQ [NAB2]	0.298		48.9	-0.11
MHRGVGPAFRVVRKMAASGAEPQVLVQYLVLRKDLSQAPFSWPAGALVAQACHAATAALHTHRDHPHTAAYLQELGRMRKVVLEAPDETTLKELAETLQQKNIDHMLWLEQPENIATCIALRPYPKEEVGQYLKKFRLFK [PTRHD1]	-0.278	55.6	52.6	0.625
MISRHLQNNLMSVDPASSQAMELSDVTLIEGVGNEVMVVAGVVVLILALVLAWLSTYVADSGSNQLLGAIVSAGDTSVLHLGHVDHLVAGQGNPEPTELPHPSEGNDEKAEEAGEGRGDSTGEAGAGGGVEPSLEHLLDIQGLPKRQAGAGSSSPEAPLRSEDSTCLPPSPGLITVRLKFLNDTEELAVARPEDTVGALKSKYFPGQESQMKLIYQGRLLQDPARTLRSLNITDNCVIHCHRSPPGSAVPGPSASLAPSATEPPSLGVNVGSLMVPVFVVLLGVVWYFRINYRQFFTAPATVSLVGVTVFFSFLVFGMYGR [TMUB2]	0.229	55	54	-0.108
MKGSNRNKDHSAEGEGVGKRPKRKCLQWHPLLAKKLLDFSEEEEEEDEEEDIDKVQLLGADGLEQDVGETEDDESPEQRARRPMNAFLLFCKRHRSLVRQEHPRLDNRGATKILADWWAVLDPKEKQKYTDMAKEYKDAFMKANPGYKWCPTTNKPVKSPTPTVNPRKKLWAFPSDSSRDLPSPKKAKTEEMPQLNFGMADPTQMGGLSMLLLAGEHALGTPEVSSGTCRPDVSESPELRQKSPLFQFAEISSSTSHSDASTKQCQTSALFQFAEISSNTSQLGGAEPVKRCGKSALFQLAEMCLASEGMKMEESKLIKAKESDGGRIKELEKGKEEKEIKMEKTDETRLQKEAEFEKSAKENLRDSKELRNFEALQIDDIMAIKMEDPKEIRKEELEEDHKCSHFPDFSYSASSKIIISDVPSRKDHMCHPHGIMIIEDPAALNKPEKLKKKKKKSKMDRHGNDKSTPKKTCKKRQSSESDIESVIYTIEAVAKGDWGIEKLGDTPRKKVRTSSSGKGSILDAKPPKKKVKSREKKMSKEKSSDTTKESRPPDFISISASKNISGETPEGIKAEPLTPMEDALPPSLSGQAKPEDSDCHRKIETCGSRKSERSCKGALYKTLVSEGMLTSLRANVDRGKRSSGKGNSSDHEGCWNEESWTFSQSGTSGSKKFKKTKPKEDCLLGSAKLDEEFEKKFNSLPQYSPVTFDRKCVPVPRKKKKTGNVSSEPTKTSKGPFQSQKKNLFHKIVSKYKHKKEKPNVPEKGSGDKWSNKQLFLDAIHPTEAIFSEDRNTMEPVHKVKNIPSIFNTPEPTTTQEPLVGSQKRKARKTKITHLVRTADGRVSPAGGTLDDKPKEQLQRSLPKATETDCNDKCSHNTEVGETRSSTPEMPAVSAFFSLAALAEVAAMENVHRGQRSTPLTHDGQPKEMPQAPVLISCADQ [BBX]	-0.353	47.4	50	0.277
